The values below come from paper PMC7038949, “FRET-Based Aptasensor for the Selective and Sensitive Detection of Lysozyme”.

The data set concerns the target lysozyme (chicken (egg white), UniProt P00698 19-147). As to the kind of experiment: single-molecule FRET (aptamer displacement); H1 helper strand 1 uM, 10 mM Mg2+; detection limit 30 nM, dynamic range to ~2 uM (not a Kd); 1x TAE-Mg: 40 mM Tris, 20 mM acetic acid, 1 mM EDTA, 10 mM Mg2+, pH 7.4; 1 uM H1 in imaging solution; temperature not stated. The conditions noted are these: protein: commercial; label: 3' Cy3 on Cy3 strand; 5' Cy5 on Cy5 strand; partially double-stranded multi-strand assembly; 15 nt of aptamer strand (6 extension + 9 aptamer) paired with B1; lysozyme displaces the aptamer strand.

Sequence of lysozyme (P00698 19-147): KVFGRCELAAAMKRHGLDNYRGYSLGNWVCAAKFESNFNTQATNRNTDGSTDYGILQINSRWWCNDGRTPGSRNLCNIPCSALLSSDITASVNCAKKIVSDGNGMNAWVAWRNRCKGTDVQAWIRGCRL

B1: lysozyme aptasensor (aptamer annealed to B1, Cy5, top and Cy3 strands) (mixed)
DNA 1: ACTGTCATCAGGGCTAAAGAGTGCAGAGTTACTTAG
DNA 2: AGCCCTGATGACAGTAATATAATTCTATA
DNA 3: TATAGAATTATATTATATTACGAGTAGTGAGTTCCA
DNA 4: ATCAGAAGCTCTC
DNA 5: TGGAACTCACTACTCGATTAGTGTATGACCTCTATATGAGAGCTTCTGAT
modifications: 5' biotin-TEG on Cy3 strand
Take B1: the binding result was “binds”.
